Square brackets hold non-standard residues; d marks the D form. * marks the point of attachment. DOTA = O=C(O)CN1CCN(CC(=O)O)CCN(CC(=O)*)CCN(CC(=O)O)CC1
Assays:
[1] = target: T1, La-DOTA-c(RGDyK) (also: DOTA as La complex); experiment: SPR competition
T1 chain: cyclo(RGD[dY]K(DOTA))

[2] = target: T1, La-DOTA-c(RGDyK); experiment: SPR competition

IC50 [1]: 33 nM | Ki [2]: 26 nM
B1: Integrin alphaVbeta3 (protein)
chain 1: FNLDVDSPAEYSGPEGSYFGFAVDFFVPSASSRMFLLVGAPKANTTQPGIVEGGQVLKCDWSSTRRCQPIEFDATGNRDYAKDDPLEFKSHQWFGASVRSKQDKILACAPLYHWRTEMKQEREPVGTCFLQDGTKTVEYAPCRSQDIDADGQGFCQGGFSIDFTKADRVLLGGPGSFYWQGQLISDQVAEIVSKYDPNVYSIKYNNQLATRTAQAIFDDSYLGYSVAVGDFNGDGIDDFVSGVPRAARTLGMVYIYDGKNMSSLYNFTGEQMAAYFGFSVAATDINGDDYADVFIGAPLFMDRGSDGKLQEVGQVSVSLQRASGDFQTTKLNGFEVFARFGSAIAPLGDLDQDGFNDIAIAAPYGGEDKKGIVYIFNGRSTGLNAVPSQILEGQWAARSMPPSFGYSMKGATDIDKNGYPDLIVGAFGVDRAILYRARPVITVNAGLEVYPSILNQDNKTCSLPGTALKVSCFNVRFCLKADGKGVLPRKLNFQVELLLDKLKQKGAIRRALFLYSRSPSHSKNMTISRGGLMQCEELIAYLRDESEFRDKLTPITIFMEYRLDYRTAADTTGLQPILNQFTPANISRQAHILLDCGEDNVCKPKLEVSVDSDQKKIYIGDDNPLTLIVKAQNQGEGAYEAELIVSIPLQADFIGVVRNNEALARLSCAFKTENQTRQVVCDLGNPMKAGTQLLAGLRFSVHQQSEMDTSVKFDLQIQSSNLFDKVSPVVSHKVDLAVLAAVEIRGVSSPDHVFLPIPNWEHKENPETEEDVGPVVQHIYELRNNGPSSFSKAMLHLQWPYKYNNNTLLYILHYDIDGPMNCTSDMEINPLRIKISSLQTTEKNDTVAGQGERDHLITKRDLALSEGDIHTLGCGVAQCLKIVCQVGRLDRGKSAILYVKSLLWTETFMNKENQNHSYSLKSSASFNVIEFPYKNLPIEDITNSTLVTTNVTWGIQPAPMPV
chain 2: GPNICTTRGVSSCQQCLAVSPMCAWCSDEALPLGSPRCDLKENLLKDNCAPESIEFPVSEARVLEDRPLSDKGSGDSSQVTQVSPQRIALRLRPDDSKNFSIQVRQVEDYPVDIYYLMDLSYSMKDDLWSIQNLGTKLATQMRKLTSNLRIGFGAFVDKPVSPYMYISPPEALENPCYDMKTTCLPMFGYKHVLTLTDQVTRFNEEVKKQSVSRNRDAPEGGFDAIMQATVCDEKIGWRNDASHLLVFTTDAKTHIALDGRLAGIVQPNDGQCHVGSDNHYSASTTMDYPSLGLMTEKLSQKNINLIFAVTENVVNLYQNYSELIPGTTVGVLSMDSSNVLQLIVDAYGKIRSKVELEVRDLPEELSLSFNATCLNNEVIPGLKSCMGLKIGDTVSFSIEAKVRGCPQEKEKSFTIKPVGFKDSLIVQVTFDCDCACQAQAEPNSHRCNNGNGTFECGVCRCGPGWLGSQCECSEEDYRPSQQDECSPREGQPVCSQRGECLCGQCVCHSSDFGKITGKYCECDDFSCVRYKGEMCSGHGQCSCGDCLCDSDWTGYYCNCTTRTDTCMSSNGLLCSGRGKCECGSCVCIQPGSYGDTCEKCPTCPDACTFKKECVECKKFDRGALHDENTCNRYCRDEIESVKELKDTGKDAVNCTYKNEDDCVVRFQYYEDSSGKSILYVVEEPECPKGPD
